# Where two headings read alike, the source gives them in different places.
# B1: IL-29: human IL-29, previously designated zcyto21, SEQ ID NO:4 (protein, listed as Homo sapiens)
# chain: MAAAWTVVLVTLVLGLAVAGPVPTSKPTTTGKGCHIGRFKSLSPQELASFKKARDALEESLKLKNWSCSSPVFPGNWDLRLLQVRERPVALEAELALTLKVLEAAAGPALEDVLDQPLHTLHHILSQLQACIQPQPTAGPRPRGRLHHWLHRLQEAPKKESAGCLEASVTFNLFRLLTRDLKYVADGNLCLRTSTHPEST
# modifications: SIGNAL (1)...(19)
# How the values were obtained:
# [1] = test system: venezuelan equine encephalitis virus; format: cell-based; details: Vero cells
# adenovirus = format: cell-based; details: A549 cells
# IL-28RA mRNA = test: Semi-quantitative RT-PCR of IL-28RA, IFNAR2 and CRF2-4 mRNA; format: cell-based, human; details: HepG2 cells + cytokine
# Method: In order to further examine the mRNA distribution for IL-28RA, semi-quantitative RT-PCR was performed using the SDS 7900HT system (Applied Biosystems, CA). One-step RT-PCR was performed using 100 ng total RNA for each sample and gene-specific primers. A standard curve was generated for each primer set using Bjab RNA and all sample values were normalized to HPRT. The normalized values for IFNAR2 and CRF2-4 are also shown.
# polio virus [2] = format: cell-based; details: Vero cells
# polio virus [3] = format: cell-based; details: Vero cells; remark: listed apart in the source
# rhino virus = format: cell-based
# [4] = test system: ISG gene expression (OAS, Pkr, Mx1); test: ISG gene induction in liver, spleen and blood of injected mice; format: in vivo, mouse; details: for OAS (24 hr): mice, expression relative to internal HPRT; for OAS- 1 hr: 1 hr after single injection of 250 μg i.v.; for OAS- 1 hr / OAS-6 hr / OAS-24 hr / OAS-48 hr: average of 5 animals; for OAS-6 hr: 6 hr after single injection of 250 μg i.v.; for OAS-24 hr: 24 hr after single injection of 250 μg i.v.; for OAS-48 hr: 48 hr after single injection of 250 μg i.v.
# Method: In addition, E. coli derived IL-29 was also tested in in vivo assays as described above using MetIL-29C172S-PEG and MetIL-29-PEG. At various time points and at different doses, ISG gene induction was measured in the blood, spleen and livers of the mice.
# Mice were sacrificed at various time points (1 hr-48 hr). Spleens and livers were isolated from mice, and RNA was isolated. RNA was also isolated from the blood cells. The cells were pelleted and RNA isolated from pellets using RNAEasy®-kit (Qiagen). RNA was treated with DNase (Amicon) to rid RNA of any contaminating DNA. cDNA was generated using Perkin-Elmer RT mix (Perkin-Elmer). ISG gene induction was measured by real-time PCR using primers and probes specific for mouse OAS, Pkr and M×1. To obtain quantitative data, HPRT real-time PCR was duplexed with ISG PCR. A standard curve was calculated using known amounts of IFN-stimulated mouse PBLs. All data are shown as expression relative to internal HPRT expression.
# Results shown are fold expression relative to HPRT gene expression. […] The data shown is the average expression from 5 different animals/group.
# Data shown is fold expression over HPRT expression from livers of mice. Similar data was obtained from blood and spleens of mice.
# influenza virus = format: cell-based; details: Influenza (type A [H3N2])
# [5] = test system: encephelomyocarditis virus; test: Antiviral assay: cytopathic effect in L929 cells; format: cell-based, mouse
# [6] = Maden-Darby Canine Kidney cells
molecule,measurement,setting,value
B1,EC50 Visual,[1],0.012 µg/mL
same,IC50 Visual,[1],>10 µg/mL
same,EC50 Visual,adenovirus,>10 µg/mL
same,IC50 Visual,adenovirus,>10 µg/mL
same,CRF2-4 mRNA normalized to HPRT,IL-28RA mRNA,3.01
same,IFNAR2 mRNA normalized to HPRT,IL-28RA mRNA,2.53
same,IL-28RA mRNA normalized to HPRT,IL-28RA mRNA,2.28
same,EC50 Visual,polio virus [2],>10 µg/mL
same,IC50 Visual,polio virus [2],>10 µg/mL
same,EC50 NR,polio virus [3],>10 µg/mL
same,IC50 NR,polio virus [3],>10 µg/mL
same,EC50 NR,"rhino virus; Rhino 2, KB cells",>10 µg/mL
same,IC50 NR,"rhino virus; Rhino 2, KB cells",>10 µg/mL
same,EC50 NR,"rhino virus; Rhino 9, HeLa cells",0.982 µg/mL
same,IC50 NR,"rhino virus; Rhino 9, HeLa cells",>10 µg/mL
same,time of peak expression of ISGs after injection,[4]; C57BL/6 mice,1 to 6 h
same,"ISG gene expression (OAS, Pkr, Mx1) in the livers, spleen and blood of mice","[4]; C57BL/6 mice, i.p or i.v, 10 μg-250 μg",induced ISG gene expression
same,OAS (24 hr),[4]; injection 10 μg,3.7
same,OAS (24 hr),[4]; injection 50 μg,4.2
same,OAS (24 hr),[4]; injection 250 μg,6
same,OAS- 1 hr,[4]; mouse blood,12 fold expression relative to HPRT gene expression
same,OAS-6 hr,[4]; mouse blood,18 fold expression relative to HPRT gene expression
same,OAS-24 hr,[4]; mouse blood,11 fold expression relative to HPRT gene expression
same,OAS-48 hr,[4]; mouse blood,10 fold expression relative to HPRT gene expression
same,OAS- 1 hr,[4]; mouse liver,2.5 fold expression relative to HPRT gene expression
same,OAS-6 hr,[4]; mouse liver,4 fold expression relative to HPRT gene expression
same,OAS-24 hr,[4]; mouse liver,2.5 fold expression relative to HPRT gene expression
same,OAS-48 hr,[4]; mouse liver,2.8 fold expression relative to HPRT gene expression
same,OAS- 1 hr,[4]; mouse spleen,4 fold expression relative to HPRT gene expression
same,OAS-6 hr,[4]; mouse spleen,6 fold expression relative to HPRT gene expression
same,OAS-24 hr,[4]; mouse spleen,3.2 fold expression relative to HPRT gene expression
same,OAS-48 hr,[4]; mouse spleen,3.2 fold expression relative to HPRT gene expression
same,EC50 Visual,influenza virus; [6],>10 µg/mL
same,IC50 Visual,influenza virus; [6],>10 µg/mL
same,EC50 Visual,influenza virus; Vero cells,>10 µg/mL
same,IC50 Visual,influenza virus; Vero cells,>10 µg/mL
same,Percentage Cytopathic Effect,[5]; relative CM conc. .008X,87%
same,Percentage Cytopathic Effect,[5]; relative CM conc. .0156X,87%
same,Percentage Cytopathic Effect,[5]; relative CM conc. .0325X,87%
same,Percentage Cytopathic Effect,[5]; relative CM conc. .0625X,87%
same,Percentage Cytopathic Effect,[5]; relative CM conc. .125X,87%
same,Percentage Cytopathic Effect,[5]; relative CM conc. .25X,87%
same,Percentage Cytopathic Effect,[5]; relative CM conc. .5X,87%
